Measurements: publication PMC12441935, “De novo designed 3-helix bundle peptides and proteins with controlled topology and stability” (Chemical Science, 2025)

Target: the molecule itself
Assay: AUC; sedimentation velocity and sedimentation equilibrium of the individual peptides N and N′, 20 °C

Protein	stoichiometry N
KLAALEKKLAALEKKTAALEYKLAAL [apCCTri-N]	3
ELAALKEELAALKEETAALKYELAAL [apCCTri-N′]	3
